Results: article PMC5392032 (Science Advances, 2017)

Molecular target: the molecule itself
Experiment: SEC-MALS

B1: Vps4^E233Q (ATP hydrolysis-deficient mutant of Saccharomyces cerevisiae vacuolar protein sorting-associated protein 4) (enzyme)
chain: KKSPSAGSGSNGGNKKISQEEGEDNGGEDNKKLRGALSSAILSEKPNVKWEDVAGLEGAKEALKEAVILPVKFPHLFKGNRKPTSGILLYGPPGTGKSYLAKAVATEANSTFFSVSSSDLVSKWMGESEKLVKQLFAMARENKPSIIFIDQVDALTGTRGEGESEASRRIKTELLVQMNGVGNDSQGVLVLGATNIPWQLDSAIRRRFERRIYIPLPDLAARTTMFEINVGDTPCVLTKEDYRTLGAMTEGYSGSDIAVVVKDALMQPIRKIQSATHFKDVSTEDDETRKLTPCSPGDDGAIEMSWTDIEADELKEPDLTIKDFLKAIKSTRPTVNEDDLLKQEQFTRDFGQEGN
With B1 the “stoichiometry N” value was 6.
